Results published in article PMC9454698.
pKd: −log10 of the molar value.

Biological target: stanniocalcin 2 (STC2), recombinant (mouse) (UniProt O88452)
Test: quartz crystal microbalance (QCM); STC2 (50 µg/mL) immobilised by amine coupling on LNB chip, Attana Cell 200; HRG injected at 50, 100 and 200 nM; PBS running buffer, 10 µL/min, 22 °C, 500 s dissociation; 1:1 global interaction model

Chain of UniProt O88452 (O88452 25-296): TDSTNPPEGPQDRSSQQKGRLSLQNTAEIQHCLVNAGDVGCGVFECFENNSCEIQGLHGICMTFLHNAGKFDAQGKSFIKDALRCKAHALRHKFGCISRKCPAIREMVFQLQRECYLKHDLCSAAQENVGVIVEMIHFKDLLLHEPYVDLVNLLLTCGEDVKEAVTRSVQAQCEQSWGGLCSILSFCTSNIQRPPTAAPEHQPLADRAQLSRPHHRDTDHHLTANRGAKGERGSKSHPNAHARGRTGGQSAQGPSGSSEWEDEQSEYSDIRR

“histidine-rich glycoprotein (HRG), recombinant, active (from UniProt Q9ESB3 19-525) (natural protein)” showed a pKd of 7.26, a koff of 0.0014 s⁻¹ and a kon of 26000 M⁻¹ s⁻¹.
